This test concerns the target T1, Mycobacterium proteasomal ATPase (Mpa), untagged recombinant (Mycobacterium tuberculosis, UniProt P9WQN5 1-609).
T1 sequence: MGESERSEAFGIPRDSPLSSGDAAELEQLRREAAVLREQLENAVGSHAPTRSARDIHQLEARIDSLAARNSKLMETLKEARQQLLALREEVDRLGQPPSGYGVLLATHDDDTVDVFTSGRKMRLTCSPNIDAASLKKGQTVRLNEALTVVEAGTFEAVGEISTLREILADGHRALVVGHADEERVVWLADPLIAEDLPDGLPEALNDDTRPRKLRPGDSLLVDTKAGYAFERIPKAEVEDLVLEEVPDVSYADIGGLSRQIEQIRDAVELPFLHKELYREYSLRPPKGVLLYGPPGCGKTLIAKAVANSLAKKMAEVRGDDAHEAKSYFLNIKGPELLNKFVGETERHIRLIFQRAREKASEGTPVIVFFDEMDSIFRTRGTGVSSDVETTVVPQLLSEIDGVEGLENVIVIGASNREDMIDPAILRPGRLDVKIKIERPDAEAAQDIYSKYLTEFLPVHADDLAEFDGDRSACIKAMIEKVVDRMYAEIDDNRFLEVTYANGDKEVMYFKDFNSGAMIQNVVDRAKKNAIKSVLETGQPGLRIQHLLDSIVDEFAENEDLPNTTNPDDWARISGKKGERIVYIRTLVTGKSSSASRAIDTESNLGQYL
Put plainly: Ni-NTA agarose pull-down, Coomassie gel and anti-Mpa immunoblot. Background: Immunoblotting shows a protein as a band on a membrane.

B1: [change] (other)
chain: MAQEQTKRGGGGGDDDDIAGSTAAGQERREKLTEETDDLLDEIDDVLEENAEDFVRAYVQKGGQ
As for B1, the binding result was “binds”.

The values above are taken from patent US20100055715A1 (published 2010).
